The values that follow are results of earlier work, collected in paper PMC8821138 (Food chemistry, 2021).

The conditions of this series: ref Parisi et al., 2020; Yagami et al., 2000.

Consider “NaD1: defensin, literature example of digestion resistance (RECKTESNTFPGICITKPPCRKACISEKFTDGHCSKILRRCLCTKPC; UniProt Q8GTM0 26-72, looked up)”, for which the “Resistance in in vitro gastrointestinal digestions” value was “demonstrated resistance”.
